Paper PMC4637903

Tests used:
Details in all cases: parent: 1.0
[1] = target: wild-type β4 integrin (co-immunoprecipitations from transfected cells) (UniProt P16144); experiment: co-immunoprecipitation (IP: Myc (β4)) and Western blot, densitometry
[2] = target: wild-type β4 integrin (co-immunoprecipitations from transfected cells) (UniProt P16144); experiment: co-immunoprecipitation (IP: β4) and Western blot, densitometry
[3] = target: wild-type FAK (co-immunoprecipitations from transfected cells); experiment: co-immunoprecipitation (IP: Myc (β4)) and Western blot, densitometry

Chain of UniProt P16144 (P16144 28-1822): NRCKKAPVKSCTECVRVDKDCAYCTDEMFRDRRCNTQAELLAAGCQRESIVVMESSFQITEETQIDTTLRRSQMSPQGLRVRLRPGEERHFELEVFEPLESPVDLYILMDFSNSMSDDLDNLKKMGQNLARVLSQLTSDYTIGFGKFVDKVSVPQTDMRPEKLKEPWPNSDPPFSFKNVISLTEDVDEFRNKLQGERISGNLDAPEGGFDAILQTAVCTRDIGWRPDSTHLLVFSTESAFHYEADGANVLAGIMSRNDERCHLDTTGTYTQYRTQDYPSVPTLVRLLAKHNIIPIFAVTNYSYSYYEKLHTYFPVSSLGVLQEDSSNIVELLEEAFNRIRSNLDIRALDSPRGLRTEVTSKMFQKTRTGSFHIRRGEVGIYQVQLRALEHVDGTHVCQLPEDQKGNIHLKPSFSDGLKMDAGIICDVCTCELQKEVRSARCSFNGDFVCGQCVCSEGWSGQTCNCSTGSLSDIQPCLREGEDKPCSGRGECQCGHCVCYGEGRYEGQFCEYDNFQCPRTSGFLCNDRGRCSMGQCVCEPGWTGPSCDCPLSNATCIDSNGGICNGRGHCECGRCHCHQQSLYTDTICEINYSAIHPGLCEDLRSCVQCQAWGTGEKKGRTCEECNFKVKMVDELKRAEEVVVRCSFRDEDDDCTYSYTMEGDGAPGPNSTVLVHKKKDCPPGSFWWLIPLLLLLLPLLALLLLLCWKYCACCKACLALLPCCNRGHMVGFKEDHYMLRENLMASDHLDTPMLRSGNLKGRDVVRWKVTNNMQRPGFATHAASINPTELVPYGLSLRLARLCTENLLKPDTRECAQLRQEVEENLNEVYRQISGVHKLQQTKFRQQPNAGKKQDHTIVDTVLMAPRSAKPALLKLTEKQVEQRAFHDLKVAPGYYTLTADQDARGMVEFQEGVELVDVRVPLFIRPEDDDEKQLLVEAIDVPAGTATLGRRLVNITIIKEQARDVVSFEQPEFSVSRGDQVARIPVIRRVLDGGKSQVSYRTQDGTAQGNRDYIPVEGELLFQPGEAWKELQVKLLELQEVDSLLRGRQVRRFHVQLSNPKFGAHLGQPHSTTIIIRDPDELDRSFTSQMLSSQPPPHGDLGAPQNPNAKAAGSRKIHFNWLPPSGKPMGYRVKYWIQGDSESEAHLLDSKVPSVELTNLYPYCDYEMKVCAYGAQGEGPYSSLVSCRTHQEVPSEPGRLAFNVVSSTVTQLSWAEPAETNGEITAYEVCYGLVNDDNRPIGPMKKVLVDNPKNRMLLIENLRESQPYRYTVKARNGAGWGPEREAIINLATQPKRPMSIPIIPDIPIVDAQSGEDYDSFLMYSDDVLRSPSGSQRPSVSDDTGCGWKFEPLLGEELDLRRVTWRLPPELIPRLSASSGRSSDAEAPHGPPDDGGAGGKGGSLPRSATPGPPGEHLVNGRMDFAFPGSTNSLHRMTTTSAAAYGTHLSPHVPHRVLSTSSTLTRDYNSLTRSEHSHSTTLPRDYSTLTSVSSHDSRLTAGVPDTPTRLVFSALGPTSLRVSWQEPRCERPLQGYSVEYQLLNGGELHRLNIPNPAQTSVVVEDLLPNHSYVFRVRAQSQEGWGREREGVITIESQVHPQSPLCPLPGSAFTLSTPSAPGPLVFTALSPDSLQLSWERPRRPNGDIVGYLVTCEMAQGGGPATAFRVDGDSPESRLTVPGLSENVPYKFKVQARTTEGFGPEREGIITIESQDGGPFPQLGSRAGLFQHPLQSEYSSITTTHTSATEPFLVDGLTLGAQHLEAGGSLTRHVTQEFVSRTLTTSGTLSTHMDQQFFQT

ratio to parent [1] | ratio to parent [3] | Substance | other results
0.3 |  | wild-type FAK (co-immunoprecipitations from transfected cells) E380A | 
 |  | wild-type FAK (co-immunoprecipitations from transfected cells) E380A; K381A; Q382A | ratio to parent [2]: 0.2
1.2 |  | wild-type FAK (co-immunoprecipitations from transfected cells) G383A | 
0.3 |  | wild-type FAK (co-immunoprecipitations from transfected cells) K381A | 
1.4 |  | wild-type FAK (co-immunoprecipitations from transfected cells) N379A | 
0.3 |  | wild-type FAK (co-immunoprecipitations from transfected cells) Q382A | 
0.5 |  | wild-type FAK (co-immunoprecipitations from transfected cells) R385A | 
 |  | wild-type FAK (co-immunoprecipitations from transfected cells) R385A; S386A | ratio to parent [2]: 0.7
1.2 |  | wild-type FAK (co-immunoprecipitations from transfected cells) S386A | 
 | 1.1 | wild-type β4 integrin (co-immunoprecipitations from transfected cells) (from UniProt P16144) Y1422F | 
 | 1.4 | wild-type β4 integrin (co-immunoprecipitations from transfected cells) (from UniProt P16144) Y1440F | 
 | 1.1 | wild-type β4 integrin (co-immunoprecipitations from transfected cells) (from UniProt P16144) Y1494F | 
 | 0.5 | wild-type β4 integrin (co-immunoprecipitations from transfected cells) (from UniProt P16144) Y1526F | 
 | 0.3 | wild-type β4 integrin (co-immunoprecipitations from transfected cells) (from UniProt P16144) Y1642F | 
